The results in this text go back to PMC7804290.

Positions count from the first letter of the chain named.

Data set [1] has as its target T1, nsp12 (RdRp catalytic subunit);nsp8;nsp7 (SARS-CoV-2;SARS-CoV-2;SARS-CoV-2, UniProt P0DTD1;P0DTD1;P0DTD1 4393-5324;3943-4140;3860-3942, ||). In words: cryo-EM (complex isolated by SEC). The settings on record: protein: recombinant;recombinant;recombinant; copies: 1;2;1. In general terms: Size exclusion chromatography separates by hydrodynamic size, large species first.

Data set [2] deals with T1, nsp12 (RdRp catalytic subunit);nsp8;nsp7. In words: cryo-EM (complex isolated by SEC); 1 mM Mg2+; AMP control for structure 2. The settings on record: protein: recombinant;recombinant;recombinant; copies: 1;2;1.

B1: scaffold 1 (RMP at -3) (structured_RNA)
RNA 1: UUUUCAUGCAUCGCGUAGGCUCAUACCGUAUUGAGACCUUUUGGUCUCAAUACGGUA
RNA 2: UGAGCCUACGCGAUG
modifications: remdesivir monophosphate (RMP, 1'-cyano-4-aza-7,9-dideazaadenosine) at position 13 of strand 2, written as A
Take B1: the binding result in data set [1] is recorded as “binds”.

B2: scaffold 3 (AMP at -4) (structured_RNA)
RNA 1: B1 RNA 1 with U11C, C12U
RNA 2: UGAGCCUACGCAGUG
As to B2, the binding result in data set [2] is reported as “binds”.

B3: scaffold 2 (RMP at -4) (structured_RNA)
RNA 1: B1 RNA 1 with U11C, C12U
RNA 2: UGAGCCUACGCAGUG
modifications: remdesivir monophosphate (RMP, 1'-cyano-4-aza-7,9-dideazaadenosine) at position 12 of strand 2, written as A (oligo R-4)
Regarding B3, the binding result in data set [1] was “binds”.
